Experiments:
[1] = system: versican GFP transgenic mouse pelage DP cells; experiment: RT-PCR analysis of gene expression in DP cells co-cultured with feeder cells; type: cell-based; conditions: freshly isolated DP cells co-cultured with feeder layers
Description: Total RNA was isolated and RT PCR performed as described in Kishimoto et al. (1999) Proc. Natl Acad. Sci. USA 96:7336-7341, using an annealing temperature of 58° C. The primers employed are listed below. With the exception of Wnts 4, 5 and 7, the primers were designed to distinguish between mouse and chicken orthologues and the lack of cross reaction to chick sequences was confirmed on cDNA from feeder cells alone.
Fresh mouse pelage DP cells were obtained from versican GFP transgenic newborn skin by high-speed cell sorting (MoFLO) as described previously in Kishimoto et al., supra. Chick embryo fibroblasts (CEFs) were infected with RCASBP(A) retroviral vectors encoding chick Shh, as described in Riddle et al. (1993) Cell 75:1401-1416, Wnt3a, as described in Kengaku et al. (1998) Science 280:1274-1277, Wnt4, Wnt5a (Noramly and Morgan, in prep), or Wnt7a, as described in Riddle et al. (1995) Cell 83:631-640, or vector alone as described, as described in Morgan et al. in Methods in Cell Biology (ed. Bonner-Fraser) pp. 185-218 (Academic Press, San Diego, 1996). GFP positive mouse DP cells were added onto 30-50% confluent feeder cells to achieve a ratio of 1:3 (mouse:chick). For the flow cytometric analysis, cells were co-cultured in 24 well dishes for 48-96 hrs. […]

[2] = system: hair inductive activity of DP cells; experiment: Skin reconstitution assay: co-cultured DP cells plus keratinocytes grafted on nude mouse hosts; type: in vivo
Source text: (§1) Fresh mouse pelage DP cells were obtained from versican GFP transgenic newborn skin by high-speed cell sorting (MoFLO) as described previously in Kishimoto et al., supra. Chick embryo fibroblasts (CEFs) were infected with RCASBP(A) retroviral vectors encoding chick Shh, as described in Riddle et al. (1993) Cell 75:1401-1416, Wnt3a, as described in Kengaku et al. (1998) Science 280:1274-1277, Wnt4, Wnt5a (Noramly and Morgan, in prep), or Wnt7a, as described in Riddle et al. (1995) Cell 83:631-640, or vector alone as described, as described in Morgan et al. in Methods in Cell Biology (ed. Bonner-Fraser) pp. 185-218 (Academic Press, San Diego, 1996). GFP positive mouse DP cells were added onto 30-50% confluent feeder cells to achieve a ratio of 1:3 (mouse:chick). For the flow cytometric analysis, cells were co-cultured in 24 well dishes for 48-96 hrs. For the grafting experiment co-cultured cells were passaged 2-3 times in 10 cm dishes to generate the 2×10^6 cells required for each graft.
The reconstitution assay was performed as described in Kishimoto et al., supra. Primary keratinocytes were prepared from 2 newborn pups per graft and combined with 2×10^6 DP cells in the graft chamber. Hair growth was monitored two weeks after grafting and weekly thereafter.

[3] = system: versican GFP transgenic mouse pelage DP cells; experiment: Flow cytometric analysis of GFP expression in DP cells co-cultured with feeder cells; type: cell-based; conditions: for GFP expression (GFP fluorescence) of DP cells: freshly isolated DP cells co-cultured with feeder cells expressing the protein, FACS analysis
Source text: as §1
Cells were trypsinized and resuspended in 0.5 ml PBS with 1% BSA. Flow cytometric analysis was performed by FACScan (Becton Dickinson). DP cells were labeled with mouse MHC class II monoclonal antibody and incubated with secondary IgG conjugated to PE. The PE negative avian cells fell below the lower gate in FIG. 3 and were excluded from the analysis of GFP expression.

[4] = DP cells maintained in culture until GFP expression and hair inductive activity were lost

| Molecule | GFP RNA levels in DP cells [1] | reactivation of hair inductive activity in DP cells that lost it in culture [2, 4] | hair growth / hair inductive activity of co-cultured DP cells ([2]; reconstituted skin on nude mouse host, compared to cells co-cultured with control feeders or Shh expression cells) | hair in graft of treated DP cells ([2]; three weeks after grafting to nude mouse, DP cells co-cultured with feeder cells, combined with keratinocytes) | reactivation of GFP expression in DP cells that lost it in culture [3, 4] | GFP expression (GFP fluorescence) of DP cells [3] |
| --- | --- | --- | --- | --- | --- | --- |
| Wnt3a: Wnt protein supplied by chick embryo fibroblast feeder cells infected with RCASBP(A) retroviral vector encoding Wnt3a (protein, UniProt Q2LMP1 19-352, looked up) Protein Wnt-3a: SYPIWWSLAIGHQYSSLGTQPILCGSIPGLVPKQLRFCRNYVEIMPSVAEGVKIGIQECQHQFRGRRWNCTTVNDSLAIFGPVLDKATRESAFVHAIASAGVAFAVTRSCAEGSATICGCDTRHKGSPGEGWKWGGCSEDVEFGSMVSREFADARENRPDARSAMNRHNNEAGRTSIIELMHLKCKCHGLSGSCEVKTCWWSQPDFRVIGDYLKDKYDSASEMVVEKHRESRGWVETLRPKYNFFKAPTEKDLVYYENSPNFCEPNPETGSFGTRDRICNVTSHGIDGCDLLCCGRGHNTRTEKRKEKCHCIFHWCCYVRCQECIRVYDVHTCK | maintained | cannot reactivate | dramatic increase in hair growth | formed a dense patch of hair in the graft | cannot reactivate | maintenance of GFP fluorescence in the majority of the DP cells |
| Wnt 4: Wnt protein supplied by chick embryo fibroblast feeder cells infected with RCASBP(A) retroviral vector encoding Wnt4 (protein, UniProt P49337 23-351, looked up) Protein Wnt-4: SNWLYLAKLSSVGSISEEETCEKLKGLIQRQVQMCKRNLEVMDSVRRGAQLAIEECQYQFRNRRWNCSTLDTLPVFGKVVTQGTREAAFVYAISSAGVAFAVTRACSSGELDKCGCDRTVQGGSPQGFQWSGCSDNIAYGVAFSQSFVDVRERSKGASSNRALMNLHNNEAGRKAILNNMRVECKCHGVSGSCEFKTCWKAMPPFRKVGNVLKEKFDGATEVEQSEIGSTKVLVPKNSQFKPHTDEDLVYLDSSPDFCDHDLKNGVLGTSGRQCNKTSKAIDGCELMCCGRGFHTDEVEVVERCSCKFHWCCSVKCKPCHRVVEIHTCR | – | – | – | – | – | some maintenance of GFP expression but were less potent than either Wnt3a or 7a |

Reference: patent US7985587B2, “Methods of culturing dermal papilla cells” (The General Hospital Corporation, priority 2000, dated 2011)
